Test results: patent publication US20230075633A1 (SHANDONG BOAN BIOTECHNOLOGY, published 2023)

Experiments:
[1] = molecular target: T1, human CEA (human, UniProt P06731 35-702); assay: cell-based or functional assay
T1 sequence (looked up): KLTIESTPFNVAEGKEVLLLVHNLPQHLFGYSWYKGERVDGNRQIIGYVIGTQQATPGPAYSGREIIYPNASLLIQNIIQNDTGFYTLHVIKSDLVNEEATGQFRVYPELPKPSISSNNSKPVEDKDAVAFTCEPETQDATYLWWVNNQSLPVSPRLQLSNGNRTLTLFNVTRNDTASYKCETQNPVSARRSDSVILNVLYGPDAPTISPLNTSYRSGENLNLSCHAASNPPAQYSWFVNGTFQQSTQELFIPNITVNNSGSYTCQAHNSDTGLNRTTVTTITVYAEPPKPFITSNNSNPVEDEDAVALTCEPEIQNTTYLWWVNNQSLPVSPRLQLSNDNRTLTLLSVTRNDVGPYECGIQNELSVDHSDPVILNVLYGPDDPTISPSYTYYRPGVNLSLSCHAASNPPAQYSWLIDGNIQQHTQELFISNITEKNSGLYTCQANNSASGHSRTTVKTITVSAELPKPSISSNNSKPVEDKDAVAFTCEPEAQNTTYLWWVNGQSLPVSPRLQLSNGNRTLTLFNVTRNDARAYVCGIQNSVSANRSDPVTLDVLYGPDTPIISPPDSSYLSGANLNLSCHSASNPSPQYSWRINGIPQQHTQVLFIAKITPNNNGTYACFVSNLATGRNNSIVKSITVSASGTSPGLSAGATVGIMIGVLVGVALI

[2] = molecular target: T2, human CD3 (human, UniProt P07766 23-207); assay: cell-based or functional assay
T2 sequence (P07766 23-207): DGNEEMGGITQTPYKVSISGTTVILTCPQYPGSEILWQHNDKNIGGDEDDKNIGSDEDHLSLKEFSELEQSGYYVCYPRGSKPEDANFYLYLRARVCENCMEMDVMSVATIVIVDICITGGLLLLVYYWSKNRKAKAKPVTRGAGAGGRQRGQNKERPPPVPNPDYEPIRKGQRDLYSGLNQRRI

[3] = molecular target: T1, human CEA; assay: cell-based or functional assay; remark: listed apart in the source
[4] = molecular target: T1, human CEA; assay: cell-based or functional assay; remark: listed apart in the source
[5] = molecular target: T1, human CEA; assay: cell-based or functional assay; remark: listed apart in the source
[6] = molecular target: T2, human CD3; assay: flow cytometry on Jurkat cells
Protocol: (§1) Mean fluorescence intensity (MFI) was determined by Flow cytometry. […] Mean fluorescence intensity (MFI) was determined by Flow cytometry.

[7] = molecular target: T2, human CD3; assay: flow cytometry on human PBMC (ND 12)
Protocol: as §1

[8] = molecular target: T3, Cynomolgus monkey CD3 protein (cynomolgus monkey, UniProt Q95LI5 22-117); assay: ELISA on cynomolgus monkey CD3 protein, curve fit
T3 sequence (looked up): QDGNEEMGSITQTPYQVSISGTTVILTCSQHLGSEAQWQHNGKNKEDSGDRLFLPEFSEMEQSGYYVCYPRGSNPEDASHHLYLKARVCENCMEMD

B1: CEA/CD3OPT1a3b2b1 BsAb (bispecific antibody, V domains shown)
VH 1: EVQLVESGGGLVQPGGSLRLSCAASGFNIKDTYMHWVRQAPGKGLEWVARIDPAQGNTKYADSVKGRFTISADTSKNTAYLQMNSLRAEDTAVYYCAPFGYYVSDYAMAYWGQGTLVTVSS
VL 1: DIQLTQSPSSLSASVGDRVTITCRAGESVDIFGVGFLHWYQQKPGKAPKLLIYRASNLESGVPSRFSGSGSRTDFTLTISSLQPEDFATYYCQQTNEDPYTFGQGTKVEIK
VH 2: EVQLVESGGGLVKPGGSLKLSCAASGFTFSTYAMNWVRQAPGKGLEWVARIRSKYNNYATTYADSVKDRFTISRDDSKNTAYLQMNNLRTEDTAVYYCVRHGNWGNSYISYWAYWGQGTTVTVSS
VL 2: not shown
notes: also called CEA/CD3-1a3b2b1-BsAb; Lead CEA/CD3; copies: 2 + 2 + 2 + 2
killing of LS-174T cells by PBMC at E:T ratio of 5:1 [1]: 20%
NFAT-luciferase in Jurkat cells: Bottom [2]: 2830
NFAT-luciferase in Jurkat cells: LogEC50 [2]: -0.154
NFAT-luciferase in Jurkat cells: Span [2]: 17200
NFAT-luciferase in Jurkat cells: Top [2]: 20000
lysis of LS-174T cells by PBMC: Bottom [3]: 12.6
lysis of LS-174T cells by PBMC: LogEC50 [3]: -2.18
lysis of LS-174T cells by PBMC: Span [3]: 91.8
lysis of LS-174T cells by PBMC: Top [3]: 104
lysis of KATO III cells by PBMC: Bottom [4]: 58.1
lysis of KATO III cells by PBMC: LogEC50 [4]: -0.194
lysis of KATO III cells by PBMC: Span [4]: 36.2
lysis of KATO III cells by PBMC: Top [4]: 94.3
cytolysis of KATO-III cells by PBMC: EC50 [5]: 0.132 nM
cytolysis of LS174T cells by PBMC: EC50 [5]: 0.0003 nM
cytolysis of MKN-45 cells by PBMC: EC50 [5]: 0.0003 nM
EC50 [6]: 113 nM
EC50 [7]: 81 nM
Bottom (best-fit) [8]: 0.00678
LogEC50 [8]: -1.75
Span (best-fit) [8]: 4.09
Top (best-fit) [8]: 4.1
